Test system: oral culture (oral swab from a healthy adult, oral flora)
Experiment: LF/GMP assay, viable plate count (pour plate) of broth culture
Type: cell-based, Streptococcus salivaris
Parameters: key to MIBC: NCF: No Effective Concentration Found
Conditions: 35° C.; for Colony Counts: viable plate count
Method: Bacterial strains used in this study were Pseudomonas aeruginosa ATCC #27853, Streptococcus mutans ATCC #33535, Streptococcus pyogenes ATCC #19615, and Actinobacillus haemophilus ATCC #43717 and an oral swab from a healthy adult. Bacteria were grown on blood/BHT media (Brain Heart Infusion Agar with protease peptone, sodium chloride, glucose, di-sodium phosphate, and agar, Oxoid, Hampshire England, Sheep's Blood) in the presence of 5% CO2 at 35° C. […] The 0.5 McFarland value is approximately equivalent to 1.0×10^8 organisms. One ml of the appropriate bacterial dilution was taken using a sterile pipette and introduced into 8 ml of sterilized BHI broth. […] By pipette, 9 ml of broth was placed into medium test tubes as means of a control and 8 ml test tubes were prepared for the concentration tests). […] This solution was filtered through a 0.45 μm filter. […] Example for calculating 2,500 ppm dilution (1,000 ppm=0.1%): [formula] [formula] [formula] To study the kinetics of LF/GMP binding, each strain of bacteria was taken separately with a sterile pipette and placed into an 8 ml BHI broth test tube, vortexed, and incubated in the presence of 1 ml of LF or GMP for 18-24 hours at 35° C. with 5% CO2. In the combination procedure, 0.5 ml of both LF and […] were taken as 1 ml inoculations. This technique was used to determine the density of living (viable) cells in inoculated broth cultures. It involves plating a bacterial sample and counting the resulting colonies after incubation. A serial dilution of the original broth was taken prior to plating. The serial dilution is necessary to reduce the density of organisms in order to create countable plates. Only plates containing between 25 and 250 colonies are considered countable. Cell densities are traditionally recorded as CFU (colony forming unit)/ml. […] Formula: [formula] The assays required the use of a pour plate technique. The pour plate technique adds a step to the conventional serial dilution. The 1 ml of dilution is added to a warm emulsion of dilute nutrient (BHI) agar to produce an agar overlay in the petri plates. After incubation, the bacterial growth covers the entire plate but individual cellular movement has been restricted by the soft agar overlay. Each colony formed is assumed to have originated from a single CFU. The plates were gently mixed, inverted, and incubated for 18-24 hour at 35° C. There is a mixture of microorganisms obtained in “normal oral flora.” Testing a swab taken from a healthy mouth cavity aided in the identification of the most common mouth flora. Experiments were conducted with the mouth culture to determine the antimicrobial effects of LF and GMP. Oral cultures were grown on BHI agar with added sheep's blood for 24 hours at 35° C. 5% CO2. […] These plates were incubated for another 24 hours. Here, isolated colonies were taken and were streaked on a BHI/Blood plate for growth of a pure culture. Streaking a plate produces isolated growth of microbial species in a mixed culture sample. Once isolated, pure cultures can be tested for species identification. The isolated colonies were Gram-stained to distinguish between Gram-positive and Gram-negative cells. The Gram stain is a differential stain in which a decolorization step occurs between the application of two basic stains. The next step was a catalase test to identify the organisms that produce the enzyme catalase. It was used to differentiate members of the catalase-positive Micrococcaceae and Staphylococci from the catalase-negative Streptococcaceae. Hydrogen peroxide was added to the bacteria and observed for a reaction (evidence of bubbles being formed). In the oral culture, three isolated colonies were tested for identification from a swabbed mouth cavity. […] This negative-catalase reaction was a confirmation of a streptococcus species. The API 20 Strep test was done on all three pure cultures to identify each species. The numbers were the results of the API 20 test. […]

B1: LF: Bovine lactoferrin, iron-binding glycoprotein purified from milk, provided by DMV International (protein, UniProt P24627 20-708, looked up)
Lactotransferrin: APRKNVRWCTISQPEWFKCRRWQWRMKKLGAPSITCVRRAFALECIRAIAEKKADAVTLDGGMVFEAGRDPYKLRPVAAEIYGTKESPQTHYYAVAVVKKGSNFQLDQLQGRKSCHTGLGRSAGWIIPMGILRPYLSWTESLEPLQGAVAKFFSASCVPCIDRQAYPNLCQLCKGEGENQCACSSREPYFGYSGAFKCLQDGAGDVAFVKETTVFENLPEKADRDQYELLCLNNSRAPVDAFKECHLAQVPSHAVVARSVDGKEDLIWKLLSKAQEKFGKNKSRSFQLFGSPPGQRDLLFKDSALGFLRIPSKVDSALYLGSRYLTTLKNLRETAEEVKARYTRVVWCAVGPEEQKKCQQWSQQSGQNVTCATASTTDDCIVLVLKGEADALNLDGGYIYTAGKCGLVPVLAENRKSSKHSSLDCVLRPTEGYLAVAVVKKANEGLTWNSLKDKKSCHTAVDRTAGWNIPMGLIVNQTGSCAFDEFFSQSCAPGADPKSRLCALCAGDDQGLDKCVPNSKEKYYGYTGAFRCLAEDVGDVAFVKNDTVWENTNGESTADWAKNLNREDFRLLCLDGTRKPVTEAQSCHLAVAPNHAVVSRSDRAAHVKQVLLHQQALFGKNGKNCPDKFCLFKSETKNLLFNDNTECLAKLGGRPTYEEYLGTEYVTAIANLKKCSTSPLLEACAFLTR
Colony Counts (50 ppm, 24 h): 4.8 × 10^8 | Colony Counts (100 ppm, 24 h): 4.2 × 10^8 | Colony Counts (250 ppm, 24 h): 4.3 × 10^8 | Colony Counts (500 ppm, 24 h): 4.0 × 10^8 | Colony Counts (1,000 ppm, 24 h): 3.9 × 10^8 | Colony Counts (3,000 ppm, 24 h): 3.4 × 10^8 | Total Log Reduction (Lactoferrin/GMP 250/0 ppm (LF alone)): 0 log | Total Log Reduction (Lactoferrin/GMP 3,000/0 ppm (LF alone)): 0 log | # Log Reductions (at the MIBC, vs control): 0 log | effect on growth (in words) (single agent, any tested concentration): not effected | MIBC (single agent, 24 h, 5% CO2): NCF
